The target of one assay is T1, Nectin-4 on T-47D cells (human, UniProt Q96NY8 32-510).
T1 construct: whole, on cells; endogenous expression; also called T-47D cells positive for Nectin-4 expression
T1 sequence (looked up): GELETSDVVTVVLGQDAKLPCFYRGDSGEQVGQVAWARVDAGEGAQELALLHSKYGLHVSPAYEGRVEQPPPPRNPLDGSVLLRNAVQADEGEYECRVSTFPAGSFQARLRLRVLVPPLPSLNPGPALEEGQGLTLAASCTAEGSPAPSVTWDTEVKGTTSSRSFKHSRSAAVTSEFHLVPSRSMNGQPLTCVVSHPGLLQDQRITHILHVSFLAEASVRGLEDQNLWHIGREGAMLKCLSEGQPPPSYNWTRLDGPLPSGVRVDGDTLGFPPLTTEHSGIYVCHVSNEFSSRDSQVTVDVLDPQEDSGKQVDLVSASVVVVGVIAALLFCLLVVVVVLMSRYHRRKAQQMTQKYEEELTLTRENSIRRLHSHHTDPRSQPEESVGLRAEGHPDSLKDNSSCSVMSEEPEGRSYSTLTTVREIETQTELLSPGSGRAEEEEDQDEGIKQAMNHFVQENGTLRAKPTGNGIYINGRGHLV
Put plainly: FACS on T-47D cells, 10 µg/mL on ice, 0 h point of the endocytosis assay. On the procedure:
In this assay, the relative amount of antibodies remaining on the cell surface after co-incubation at 37° C. for a certain period of time was detected by FACS to reflect the endocytosis efficiency. The procedures are briefly described as follows: T-47D cells (human ductal breast cancer cells, derived from the Cell Bank of Chinese Academy of Sciences, Cat. No. TCHu 87); the antibodies were adjusted to 10 μg/mL and co-incubated with the cells on ice for 1 h; the cells were washed 3 times with pre-cooled PBS, and then placed at 37° C. and incubated for 0 h, 2 h and 4 h; 0.2% N₃Na was added to stop the endocytosis reaction; the cells were washed with PBS thrice, followed by the addition of the PE-labeled anti-human Fc secondary antibody (Invitrogen 12-4998-82); the cells were incubated at 4° C. for 30 min; the red fluorescence signal was detected on a flow cytometer.

In assay [1] the target is T2, hNectin-1 (ACRO, PV1-H5223) (human, UniProt Q15223 31-334).
T2 construct: bought
T2 sequence (looked up): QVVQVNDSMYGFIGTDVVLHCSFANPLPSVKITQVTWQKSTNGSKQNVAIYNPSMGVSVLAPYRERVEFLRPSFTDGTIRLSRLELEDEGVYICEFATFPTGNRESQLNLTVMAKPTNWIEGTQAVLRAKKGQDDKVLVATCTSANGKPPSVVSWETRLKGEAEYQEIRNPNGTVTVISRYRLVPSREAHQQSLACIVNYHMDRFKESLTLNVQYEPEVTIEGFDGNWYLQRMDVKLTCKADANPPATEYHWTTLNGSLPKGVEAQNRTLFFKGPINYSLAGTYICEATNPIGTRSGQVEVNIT
Put plainly: ELISA, antigen coated, HRP-labeled anti-human-Kappa secondary antibody. On the procedure: (§1) The binding activity of intact antibodies was detected by ELISA. The procedures are briefly described as follows: the hNectin-4-His antigen protein of Example 1 was immobilized at a concentration of 1 μg/mL on a plate; the plate was blocked with skimmed milk powder overnight, and then, serially diluted antibodies of interest were added for co-incubation (antibodies in Table 9 were serially 2-fold diluted from 2 μg/mL; antibodies in Tables 10 and 11 were serially 3-fold diluted from 10 μg/mL) at room temperature for 2 h; then an HRP-labeled anti-human-kappa (Sigma, A7164) secondary antibody was added for co-incubation for 1 h, followed by the addition of TMB (Huzhou InnoReagents, TMB-S-001) for chromogenic reaction, and the reaction was stopped with 0.1 M H₂SO₄; after the absorbance at OD450 was read on a microplate reader, the binding EC₅₀ value for each antibody was calculated by four-parameter fitting, and the binding activities of the antibodies were compared.
(§2) In this assay, the binding of different antibodies to human Nectin-4 homologous proteins hNectin-1 (ACRO, PV1-H5223), hNectin-2 (ACRO, PV2-H52E2), hNectin-3 (ACRO, PV3-H52E4), and hNectin-4-His was detected by ELISA to determine the specificity of the antibodies. For the methodology and procedures, see Example 4. Antigens of interest ([…]) were immobilized; after blocking, serially diluted antibodies (2-fold serially diluted from […]) were added, and HRP-labeled anti-human-Kappa secondary antibody was added for chromogenic reaction.
For orientation: ELISA stands for enzyme-linked immunosorbent assay.

The target of assay [2] is T3, hNectin-2 (ACRO, PV2-H52E2) (human, UniProt Q92692 32-360).
T3 construct: bought
T3 sequence (looked up): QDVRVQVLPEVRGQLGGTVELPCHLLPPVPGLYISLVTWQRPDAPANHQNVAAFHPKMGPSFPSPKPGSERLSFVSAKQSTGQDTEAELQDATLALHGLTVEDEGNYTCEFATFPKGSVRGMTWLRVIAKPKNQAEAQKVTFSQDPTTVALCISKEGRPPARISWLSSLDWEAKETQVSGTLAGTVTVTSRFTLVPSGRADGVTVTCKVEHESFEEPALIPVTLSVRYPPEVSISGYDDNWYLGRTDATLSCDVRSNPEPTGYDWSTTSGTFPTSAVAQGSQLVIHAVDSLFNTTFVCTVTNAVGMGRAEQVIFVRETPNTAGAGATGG
The description is as above. On the procedure:
as §1, §2

B1: antibody 10F4 (antibody, human IgG1, kappa, V domains shown)
VH: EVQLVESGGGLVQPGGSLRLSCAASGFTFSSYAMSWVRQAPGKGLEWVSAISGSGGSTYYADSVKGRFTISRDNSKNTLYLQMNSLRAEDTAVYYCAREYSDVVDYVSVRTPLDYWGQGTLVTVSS
VL: DIQMTQSPSSLSASVGDRVTITCRASQGISSYLAWYQQKPGKAPKLLIYAASSLQSGVPSRFSGSGSGTDFTLTISSLQPEDFATYYCQQHYTTPPTFGQGTKVEIKR
notes: intact antibody
B1: the “MFI (0 h)” value in the assay with Nectin-4 on T-47D cells was found to be 104000 MFI. Also, the binding result in assay [1] and in assay [2] was “no binding (tested: 2000 ng/mL)” each time.

B2: antibody 1G8 (antibody, human IgG1, kappa, V domains shown)
VH: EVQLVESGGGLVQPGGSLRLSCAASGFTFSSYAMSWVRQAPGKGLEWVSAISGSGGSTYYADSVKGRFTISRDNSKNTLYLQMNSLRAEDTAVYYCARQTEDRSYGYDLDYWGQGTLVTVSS
VL: B1 VL
notes: intact antibody
With B2, the “MFI (0 h)” value in the assay with Nectin-4 on T-47D cells is 105000 MFI. Moreover, the binding result in assay [1] and in assay [2] was “no binding (tested: 2000 ng/mL)” in each case.
